The record followed here is patent US20230064378A1 (Eli Lilly, published 2023).

The target of test [1] is T1, human IL-4Rα on cells (human, UniProt P24394 26-825).
T1 sequence: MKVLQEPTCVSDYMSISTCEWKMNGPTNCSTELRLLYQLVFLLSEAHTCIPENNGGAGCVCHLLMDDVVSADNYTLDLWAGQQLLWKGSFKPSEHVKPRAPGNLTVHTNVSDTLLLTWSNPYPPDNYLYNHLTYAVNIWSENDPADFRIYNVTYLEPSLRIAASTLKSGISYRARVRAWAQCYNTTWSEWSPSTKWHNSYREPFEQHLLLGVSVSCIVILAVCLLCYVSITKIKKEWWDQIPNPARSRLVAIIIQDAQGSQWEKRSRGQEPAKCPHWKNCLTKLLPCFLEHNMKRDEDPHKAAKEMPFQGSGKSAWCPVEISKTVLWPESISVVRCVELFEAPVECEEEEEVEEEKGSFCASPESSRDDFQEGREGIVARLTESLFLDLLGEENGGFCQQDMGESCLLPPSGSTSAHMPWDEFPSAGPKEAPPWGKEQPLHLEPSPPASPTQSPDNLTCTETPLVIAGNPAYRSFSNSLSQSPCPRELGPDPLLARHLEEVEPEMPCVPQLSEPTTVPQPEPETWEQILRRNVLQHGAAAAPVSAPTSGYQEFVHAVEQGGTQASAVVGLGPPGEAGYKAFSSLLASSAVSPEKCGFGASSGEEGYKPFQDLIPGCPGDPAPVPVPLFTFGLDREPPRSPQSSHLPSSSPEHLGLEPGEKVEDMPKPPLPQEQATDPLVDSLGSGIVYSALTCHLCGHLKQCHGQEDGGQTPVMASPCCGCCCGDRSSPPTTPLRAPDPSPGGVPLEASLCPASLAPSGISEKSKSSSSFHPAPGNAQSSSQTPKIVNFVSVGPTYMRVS
Put plainly: cell-based or functional assay.

The target of test [2] is T1, human IL-4Rα on cells. Put plainly: flow cytometry staining of primary human B cells (Th2 cells also confirmed IL-4Rα+). (In general: A flow cytometer gives signals particle by particle.)
From the text: Flow cytometry staining was used to assess cell purity on a BD LSRFortessa Cell Analyzer.
Test [3] deals with T1, human IL-4Rα on cells. Put plainly: cell-based or functional assay. The source holds these as a separate data set.
Test [4] concerns the target T1, human IL-4Rα on cells. Put plainly: cell-based or functional assay. The source holds these as a separate data set.
Test [5] addresses T1, human IL-4Rα on cells. Put plainly: cell-based or functional assay. The source holds these as a separate data set.
In test [6] the target is T2, Human C1q (human, UniProt P02745 23-245; P02746 28-253; P02747 29-245).
T2 construct: Bought (MS Biomedical); also called complement component C1q
T2 sequence (P02745 23-245 limits assumed, chain 1 of 3): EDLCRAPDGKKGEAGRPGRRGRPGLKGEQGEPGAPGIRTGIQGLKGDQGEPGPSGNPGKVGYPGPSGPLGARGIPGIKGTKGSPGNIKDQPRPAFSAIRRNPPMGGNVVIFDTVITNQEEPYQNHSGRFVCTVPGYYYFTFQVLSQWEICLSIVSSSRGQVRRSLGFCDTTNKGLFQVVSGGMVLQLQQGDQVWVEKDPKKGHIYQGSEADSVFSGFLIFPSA
T2 sequence (P02746 28-253 limits assumed, chain 2 of 3): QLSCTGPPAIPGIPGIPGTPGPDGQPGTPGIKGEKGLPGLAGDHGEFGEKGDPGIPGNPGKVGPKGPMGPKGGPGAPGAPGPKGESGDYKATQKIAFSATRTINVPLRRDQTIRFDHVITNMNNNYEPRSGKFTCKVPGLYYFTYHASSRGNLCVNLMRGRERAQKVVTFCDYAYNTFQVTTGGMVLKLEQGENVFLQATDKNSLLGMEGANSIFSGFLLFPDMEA
T2 sequence (P02747 29-245 limits assumed, chain 3 of 3): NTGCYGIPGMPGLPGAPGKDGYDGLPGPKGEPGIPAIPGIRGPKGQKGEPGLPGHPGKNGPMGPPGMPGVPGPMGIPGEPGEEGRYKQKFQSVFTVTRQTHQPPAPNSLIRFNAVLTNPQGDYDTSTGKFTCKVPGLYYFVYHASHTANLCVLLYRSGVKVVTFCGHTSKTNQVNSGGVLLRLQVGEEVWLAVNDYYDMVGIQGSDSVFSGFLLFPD
Put plainly: ELISA, antibody coated, C1q detected with anti-C1q-HRP. For orientation: In an ELISA, binding on a coated surface is turned into a signal by an enzyme label.
Method: The binding of the exemplified anti-IL-4Rα antibodies to human C1q was evaluated by ELISA. 96-well microplates were coated with 100 μL/well of each exemplified antibody diluted in DPBS (Dulbecco's HyClone) from 10 μg/mL to 0.19 g/mL, and incubated overnight at 4° C. The coating reagent was removed, plates were blocked with 200 μL/well casein blocking buffer (Thermo) and incubated for 2 hours at room temperature (RT). Plates were washed 3 times with wash buffer (1×TBE with 0.05% Tween 20), and 10 μg/mL Human C1q (MS Biomedical) diluted in casein blocking reagent is added at 100 μL/well and incubated for 3 hours at RT. Humanized IgG1 and humanized IgG4P isotype control antibodies were used as positive and negative controls respectively. Plates were then washed three times with wash buffer and 100 L/well of a 1:800 times dilution of Sheep anti-human C1q-HRP (Abcam #ab46191) in casein blocker was added and incubated for 1 hour at RT. The plates were then washed 6 times with wash buffer, and 100 μL/well of TMB Substrate (Pierce) was added to each well and incubated for 7 minutes. 100 μL/well of 1 N HCl was added to stop the reaction. Optical density was immediately measured at 450 nm on a colorimetric microplate reader. Data was analyzed using SoftMax Pro 7.1 Data Acquisition and Analysis Software.

The target of test [7] is T1, human IL-4Rα on cells. Put plainly: cell-based or functional assay. This is another data set of the same source.

B1: 5F3 IgG4PAA (antibody, V domains shown)
VH: QVQLVESGGGLVQPGGSLRLSCAASGFTFSISSMNWVRQAPGKGLEWVSYISRATGAIYYADSVKGRFTISRNNAKNSLYLQMNSLRDEDTAVYYCAREPVFDYWGQGTLVTVSS
VL: DIQMTQSPSAMSASVGDRVTITCRASQGISNYLAWFQQKPGKVPTRLIYAASSLQSGVPSRFSGSGSGTEFTLTISSLQPEDFATYYCLQHNSYPRTFGQGTKVEIKR
Consider B1, for which, in test [1], the “IL-4 IC50 (nM), IL-4 induced SEAP activity in HEK-Blue cells” value (from here on “IL-4 IC50 (nM)”) was found to be 3.45 nM and the “IL-13 IC50 (nM), IL-13 induced SEAP activity in HEK-Blue cells” value (shortened to “IL-13 IC50 (nM)”) was more than 35 nM.

B2: 8660 IgG4P 124C/378C (antibody, V domains shown)
VH: QVQLVESGGGLVQPGGSLRLSCAASGFTFSHSSMNWVRQAPGKGLEWVSYISRATGAVYYADSVKGRFTISRDNAKNSLYLQMNSLRDEDTAVYYCAREPVFDYWGQGTLVTVSS
VL: DIQMTQSPSAMSASVGDRVTITCRASQGISNYLAWFQQKPGKVPTRLIYAASSLQSGVPSRFSGSGSGTEFTLTISSLQPEDFATYYCLQWSSYPRTFGQGTKVEIKR
With B2, in test [1], the “IL-4 IC50 (nM)” value worked out at 0.03 nM and the “IL-13 IC50 (nM)” value turned out to be 0.24 nM.

B3: 5559-Alexa Fluor-647 (antibody, V domains shown)
VH: QVQLVESGGGLVQPGGSLRLSCVASGFTFSHSSMNWVRQAPGKGLEWVSYISRATGAVYYADSVKGRFTISRDNAKNSLYLQMNSLRDEDTAVYYCAREPVFDYWGQGTLVTVSS
VL: DIQMTQSPSAMSASVGDRVTITCRASQDISNYLAWFQQKPGKVPTRLIYAASSLQSGVPSRFSGSGSGTEFTLTISSLQPEDFATYYCLQWSSYPRTFGQGTKVEIK
modifications: Antibody conjugated to Alexa Fluor 647; the attachment sites are not stated and the letters do not carry the dye.
As for B3, the binding result in test [2] was “binds”.

B4: 5559 IgG4P KRQ 124C/378C (antibody)
heavy: QVQLVESGGGLVQPGGSLRLSCVASGFTFSHSSMNWVRQAPGKGLEWVSYISRATGAVYYADSVKGRFTISRDNAKNSLYLQMNSLRDEDTAVYYCAREPVFDYWGQGTLVTVSSASTKGPCVFPLAPCSRSTSESTAALGCLVKDYFPEPVTVSWNSGALTSGVHTFPAVLQSSGLYSLSSVVTVPSSSLGTKTYTCNVDHKPSNTKVDKRVESKYGPPCPPCPAPEFLGGPSVFLFPPKPKDTLMISRTPEVTCVVVDVSQEDPEVKFNWYVDGVEVHNAKTKPREEQFNSTYRVVSVLTVLHQDWLNGKEYKCKVSNKGLPSSIEKTISKAKGQPREPQVYTLPPSREEMTKNQVSLTCLVKGFYPSDICVEWESNGQPENNYKTTPPVLDSDGSFFLYSRLTVDKSRWQQGNVFSCSVMHEALHNHYTQKSLSLSLG
light: DIQMTQSPSAMSASVGDRVTITCRASQDISNYLAWFQQKPGKVPTRLIYAASSLQSGVPSRFSGSGSGTEFTLTISSLQPEDFATYYCLQWSSYPRTFGQGTKVEIKRTVAAPSVFIFPPSDEQLKSGTASVVCLLNNFYPREAKVQWKVDNALQSGNSQESVTEQDSKDSTYSLSSTLTLSKADYEKHKVYACEVTHQGLSSPVTKSFNRGEC
With B4, in test [3], the “Inhibition of IL-4 induced STAT6 phosphorylation, B cells IC50” value was determined as 0.05 µg/mL and the “Inhibition of IL-4 induced STAT6 phosphorylation, T cells IC50” value came out at 0.07 µg/mL. Further, in test [4], the “Inhibition of IL-4 induced B cell proliferation IC50” value was found to be 1.32 nM. In test [1], the “IL-4 IC50 (nM)” value was 0.08 nM and the “IL-13 IC50 (nM)” value came out at 0.67 nM. In test [5], the “Inhibition of CD23 expression on myeloid cells, IL-4 induced IC50” value came to 18.2 nM and the “Inhibition of CD23 expression on myeloid cells, IL-13 induced IC50” value was found to be 5.37 nM. Also, the binding result in test [6] is on record as “no binding”. Also, the “Inhibition of IL-13 induced STAT6 phosphorylation in B cells IC50” value in test [7] was 0.06 µg/mL.

B5: 5559 IgG1A 124C/378C (antibody)
heavy: not shown
light: DIQMTQSPSAMSASVGDRVTITCRASQDISNYLAWFQQKPGKVPTRLIYAASSLQSGVPSRFSGSGSGTEFTLTISSLQPEDFATYYCLQWSSYPRTFGQGTKVEIKRTVAAPSVFIFPPSDEQLKSGTASVVCLLNNFYPREAKVQWKVDNALQSGNSQESVTEQDSKDSTYSLSSTLTLSKADYEKHKVYACEVTHQGLSSPVTKSFNRGEC
Take B5: the binding result in test [6] is given as “no binding”.
